Reference: FireProtDB (doi:10.1021/bi000415x)

Conditions: Lithobates pipiens, MES 100 mM, reversible: yes, whole UniProt chain shown; for unfolding free energy / denaturant m value / denaturant midpoint (higher = more stable): 25 °C

B1: Protein P-30 wild type, P22069 (protein)
chain: QDWLTFQKKHITNTRDVDCDNIMSTNLFHCKDKNTFIYSRPEPVKAICKGIIASKNVLTTSEFYLSDCNVTSRPCKYKLKKSTNKFCVTCENQAPVHFVGVGSC
pH 2, Thermal, DSC
  unfolding free energy: 8.84 kcal/mol
  Tm: 69.5 °C
  heat capacity change of unfolding: 1.48 kcal/mol/K
  unfolding enthalpy (calorimetric): 102 kcal/mol
  unfolding enthalpy (van 't Hoff): 105 kcal/mol
pH 2.5, Thermal, DSC
  unfolding free energy: 9.54 kcal/mol
  Tm: 72.6 °C
  heat capacity change of unfolding: 1.31 kcal/mol/K
  unfolding enthalpy (calorimetric): 105 kcal/mol
  unfolding enthalpy (van 't Hoff): 104 kcal/mol
pH 3, Thermal, DSC
  unfolding free energy: 10.8 kcal/mol
  Tm: 76.5 °C
  heat capacity change of unfolding: 1.43 kcal/mol/K
  unfolding enthalpy (calorimetric): 112 kcal/mol
  unfolding enthalpy (van 't Hoff): 110 kcal/mol
pH 3.5, Thermal, DSC
  unfolding free energy: 12.2 kcal/mol
  Tm: 81.6 °C
  heat capacity change of unfolding: 1.36 kcal/mol/K
  unfolding enthalpy (calorimetric): 120 kcal/mol
  unfolding enthalpy (van 't Hoff): 118 kcal/mol
pH 4, Thermal, DSC
  unfolding free energy: 13.5 kcal/mol
  Tm: 86.8 °C
  heat capacity change of unfolding: 1.24 kcal/mol/K
  unfolding enthalpy (calorimetric): 125 kcal/mol
  unfolding enthalpy (van 't Hoff): 127 kcal/mol
pH 5, Thermal, DSC
  unfolding free energy: 14.1 kcal/mol
  Tm: 88.3 °C
  heat capacity change of unfolding: 1.53 kcal/mol/K
  unfolding enthalpy (calorimetric): 129 kcal/mol
  unfolding enthalpy (van 't Hoff): 132 kcal/mol
pH 6, GdnHCl, CD
  denaturant m value: 3.13 kcal/mol/M
  denaturant midpoint (higher = more stable): 4.5 M
  unfolding free energy: 14.1 kcal/mol
pH 6, GdnHCl, Fluorescence
  denaturant m value: 3.08 kcal/mol/M
  denaturant midpoint (higher = more stable): 4.5 M
  unfolding free energy: 13.9 kcal/mol
pH 6, Thermal, DSC
  unfolding free energy: 14.2 kcal/mol
  Tm: 88.7 °C
  heat capacity change of unfolding: 1.31 kcal/mol/K
  unfolding enthalpy (calorimetric): 129 kcal/mol
  unfolding enthalpy (van 't Hoff): 128 kcal/mol
pH 7, Thermal, DSC
  unfolding free energy: 13.7 kcal/mol
  Tm: 87.8 °C
  heat capacity change of unfolding: 1.43 kcal/mol/K
  unfolding enthalpy (calorimetric): 127 kcal/mol
  unfolding enthalpy (van 't Hoff): 123 kcal/mol
pH 8, Thermal, DSC
  unfolding free energy: 13 kcal/mol
  Tm: 85.4 °C
  heat capacity change of unfolding: 1.39 kcal/mol/K
  unfolding enthalpy (calorimetric): 123 kcal/mol
  unfolding enthalpy (van 't Hoff): 127 kcal/mol
